The source of these data is the supplement of paper PMC7877785.

The nature of this series: self-splicing fitness, log relative to wild type (ln ratio); higher = more splicing; Tetrahymena group I intron in knt gene, E. coli kanamycin selection, DiMSum; sequences stand for … in CUCUCU…GGAGGGAAAAGUUAUCAGGCAUGCACCUGGUAGCUAGUCUUUAAACCAAUAGAUUGCAUCGGUUUAAAAGGCAAGACCGUCAAAUUGCGGGAAAGGGGUCAACAGCCGUUCAGUACCAAGUCUCAGGGGAAACUUUGAGAUGGCCUUGCAAAGGGUAUGGUAAUAAGCUGACGGACAUGGUCCUAACCACGCAGCCAAGUCCUAAGUCAACAGAUCUUCUGUUGAUAUGGAUGCAGUUCACAGACUAAAUGUCGGUCGGGGAAGAUGUAUUCUUCUCAUAAGAUAUAGUCGGACCUCUCCUUAAUGGGAGCUAGCGGAUGAAGUGAUGCAACACUGGAGCCGCUGGGAACUAAUUUGUAUGCGAAAGUAUAUUGAUUAGUUUUGGAGUACUCGUGGUCG
The method in brief:
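A randomised library covering all eight P1ex-region intron nucleotides was built with the intron in the knt kanamycin-resistance gene on pET-22b(+) and held in E. coli BL21(DE3). Cells were grown overnight at 37°C or 30°C on LB agar, with or without 25 μg/mL kanamycin, plus 100 μg/mL carbenicillin, 50 μM IPTG and 0.2% rhamnose, and pooled colonies were amplicon-sequenced on an Illumina HiSeq 2500. DiMSum fitness is the error-weighted combination of wild-type-normalised replicate fold changes, kanamycin versus none.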

± gives the uncertainty stated by the source.

In the case of GCUCAGCAAUAUUACGGACU, the “self-splicing fitness (ln)” value reads like this: (30 °C) 0.158 ± 0.12; (37 °C) 0.485 ± 0.19.
In the same order, the values of GCUCAGCAAUAUUACGGCAU are -2.29 ± 0.2 and -1.72 ± 0.15.
Regarding GCUCAGCAAUAUUACGGGCC, the “self-splicing fitness (ln)” value reads like this: (30 °C) -2.8 ± 0.2; (37 °C) -3.37 ± 0.25.
With GCUCAGCAAUAUUACGGGGU, the “self-splicing fitness (ln)” value was -3.51 ± 0.15 (30 °C) and -1.39 ± 0.14 (37 °C).
For the sequence GCUCAGCAAUAUUACGGGUC, the “self-splicing fitness (ln)” value was -3.6 ± 0.22 (30 °C) and -2.91 ± 0.23 (37 °C).
As for GCUCAGCAAUAUUACGGUCA, the “self-splicing fitness (ln)” value was -1.12 ± 0.09 (30 °C) and -0.085 ± 0.082 (37 °C).
In the same order, the values of GCUCAGCAAUAUUACGUAAC are -1 ± 0.087 and -0.439 ± 0.11.
Regarding GCUCAGCAAUAUUACGUCGA, the “self-splicing fitness (ln)” value was -3.22 ± 0.17 (30 °C) and -2.45 ± 0.16 (37 °C).
Turning to GCUCAGCAAUAUUACGUCGC, the “self-splicing fitness (ln)” value is, setting by setting: (30 °C) -1.95 ± 0.17; (37 °C) -0.137 ± 0.16.
In the same order, the values of GCUCAGCAAUAUUACGUGCU are -2.26 ± 0.086 and -0.582 ± 0.09.
On to GCUCAGCAAUAUUACGUGGC, for which the “self-splicing fitness (ln)” value by setting is: (30 °C) -3.61 ± 0.19; (37 °C) -2.79 ± 0.3.
In the same order, the values of GCUGAGCAAUAUUACGAAGA are -2.11 ± 0.21 and -0.81 ± 0.17.
In the same order, the values of GCUGAGCAAUAUUACGACGU are -1.45 ± 0.057 and -0.232 ± 0.064.
For GCUGAGCAAUAUUACGACUC, the “self-splicing fitness (ln)” value is -0.148 ± 0.2 (30 °C) and -0.469 ± 0.21 (37 °C).
In the same order, the values of GCUGAGCAAUAUUACGAUAG are -1.35 ± 0.25 and -1.83 ± 0.26.
GCUGAGCAAUAUUACGAUUA: the “self-splicing fitness (ln)” value is, setting by setting: (30 °C) -2.88 ± 0.37; (37 °C) -0.431 ± 0.38.
For GCUGAGCAAUAUUACGCCAC, the “self-splicing fitness (ln)” value was -4.02 ± 0.27 (30 °C) and -2.27 ± 0.26 (37 °C).
In the case of GCUGAGCAAUAUUACGCCCG, the “self-splicing fitness (ln)” value is -2.34 ± 0.27 (30 °C) and -0.207 ± 0.42 (37 °C).
As to GCUGAGCAAUAUUACGCGUA, where the note is “37 °C”, the “self-splicing fitness (ln)” value was -2.23 ± 0.37.
GCUGAGCAAUAUUACGCUAA: under “30 °C”, the “self-splicing fitness (ln)” value is -3.04 ± 0.32.
As to GCUGAGCAAUAUUACGGAGA, the “self-splicing fitness (ln)” value is, setting by setting: (30 °C) -2.79 ± 0.43; (37 °C) -1.85 ± 0.28.
As to GCUGAGCAAUAUUACGGAGU, under “37 °C”, the “self-splicing fitness (ln)” value was -2.38 ± 0.31.
Regarding GCUGAGCAAUAUUACGGCAU, the “self-splicing fitness (ln)” value is, setting by setting: (30 °C) -2.59 ± 0.2; (37 °C) -1.82 ± 0.18.
With GCUGAGCAAUAUUACGGCCC, under “37 °C”, the “self-splicing fitness (ln)” value is -2.32 ± 0.35.
In the case of GCUGAGCAAUAUUACGGCGU, the “self-splicing fitness (ln)” value (30 °C) was -0.642 ± 0.14 and the “self-splicing fitness (ln)” value (37 °C) came to 0.234 ± 0.15.
As for GCUGAGCAAUAUUACGGUUG, the “self-splicing fitness (ln)” value by setting is: (30 °C) -3.64 ± 0.31; (37 °C) -2.67 ± 0.35.
In the same order, the values of GCUGAGCAAUAUUACGUAAC are -2.3 ± 0.24 and -1.6 ± 0.36.
In the same order, the values of GCUGAGCAAUAUUACGUACC are -1.54 ± 0.13 and -0.328 ± 0.18.
In the same order, the values of GCUGAGCAAUAUUACGUCCU are -1.52 ± 0.15 and -1.06 ± 0.2.
As for GCUGAGCAAUAUUACGUCGC, the “self-splicing fitness (ln)” value was -2.96 ± 0.26 (30 °C) and -2.17 ± 0.24 (37 °C).
With GCUGAGCAAUAUUACGUCGG, the “self-splicing fitness (ln)” value (37 °C) was -1.27 ± 0.41.
For the sequence GCUGAGCAAUAUUACGUGAA, the “self-splicing fitness (ln)” value (30 °C) is -2.63 ± 0.22 and the “self-splicing fitness (ln)” value (37 °C) was -1.35 ± 0.23.
In the case of GCUGAGCAAUAUUACGUUAA, the “self-splicing fitness (ln)” value reads like this: (30 °C) -3.04 ± 0.34; (37 °C) -2.78 ± 0.32.
For the sequence GCUGAGCAAUAUUACGUUCA, the “self-splicing fitness (ln)” value by setting is: (30 °C) -3.45 ± 0.28; (37 °C) -1.81 ± 0.2.
In the same order, the values of GCUUAGCAAUAUUACGACCC are -0.525 ± 0.22 and -0.569 ± 0.38.
In the same order, the values of GCUUAGCAAUAUUACGACGA are -0.927 ± 0.16 and -0.516 ± 0.13.
Consider GCUUAGCAAUAUUACGACUC, for which the “self-splicing fitness (ln)” value is, setting by setting: (30 °C) -0.244 ± 0.15; (37 °C) 0.619 ± 0.18.
In the same order, the values of GCUUAGCAAUAUUACGAGAA are -1.2 ± 0.27 and -0.264 ± 0.22.
GCUUAGCAAUAUUACGAGAC: the “self-splicing fitness (ln)” value reads like this: (30 °C) -2.64 ± 0.22; (37 °C) -1.54 ± 0.18.
In the same order, the values of GCUUAGCAAUAUUACGAUCA are -1.1 ± 0.14 and -0.788 ± 0.16.
In the same order, the values of GCUUAGCAAUAUUACGAUUU are -0.0141 ± 0.091 and -0.234 ± 0.12.
In the same order, the values of GCUUAGCAAUAUUACGCGGC are -2.35 ± 0.29 and -2.19 ± 0.37.
For the sequence GCUUAGCAAUAUUACGCUAA, the “self-splicing fitness (ln)” value is, setting by setting: (30 °C) -2.91 ± 0.21; (37 °C) -3.01 ± 0.26.
Turning to GCUUAGCAAUAUUACGCUAC, the “self-splicing fitness (ln)” value (37 °C) was -3.24 ± 0.28.
On to GCUUAGCAAUAUUACGCUAU, for which the “self-splicing fitness (ln)” value is -2.31 ± 0.16 (30 °C) and -1.38 ± 0.16 (37 °C).
As to GCUUAGCAAUAUUACGCUUG, the “self-splicing fitness (ln)” value reads like this: (30 °C) -2.53 ± 0.27; (37 °C) -1.74 ± 0.36.
Turning to GCUUAGCAAUAUUACGCUUU, the “self-splicing fitness (ln)” value by setting is: (30 °C) -1.23 ± 0.064; (37 °C) -0.413 ± 0.084.
In the same order, the values of GCUUAGCAAUAUUACGGAAU are -1.15 ± 0.062 and 0.0941 ± 0.077.
GCUUAGCAAUAUUACGGACG: the “self-splicing fitness (ln)” value (30 °C) was -1.15 ± 0.13 and the “self-splicing fitness (ln)” value (37 °C) amounted to 0.122 ± 0.18.
In the same order, the values of GCUUAGCAAUAUUACGGCUU are -0.91 ± 0.089 and -0.586 ± 0.11.
For the sequence GCUUAGCAAUAUUACGGGAC, the “self-splicing fitness (ln)” value was -1.78 ± 0.18 (30 °C) and -1.19 ± 0.2 (37 °C).
In the same order, the values of GCUUAGCAAUAUUACGUACA are -1.38 ± 0.13 and -0.577 ± 0.14.
Take GCUUAGCAAUAUUACGUCCU: the “self-splicing fitness (ln)” value (30 °C) is -1.01 ± 0.12 and the “self-splicing fitness (ln)” value (37 °C) is -0.274 ± 0.15.
GCUUAGCAAUAUUACGUCGC: the “self-splicing fitness (ln)” value was -1.72 ± 0.19 (30 °C) and -0.764 ± 0.28 (37 °C).
For GCUUAGCAAUAUUACGUGAU, the “self-splicing fitness (ln)” value runs as follows: (30 °C) -0.4 ± 0.065; (37 °C) -0.482 ± 0.068.
As for GGAAAGCAAUAUUACGAACA, the “self-splicing fitness (ln)” value reads like this: (30 °C) -1.34 ± 0.15; (37 °C) -0.362 ± 0.15.
In the same order, the values of GGAAAGCAAUAUUACGAACG are -0.51 ± 0.1 and -0.441 ± 0.12.
Take GGAAAGCAAUAUUACGACCG: the “self-splicing fitness (ln)” value was -0.761 ± 0.12 (30 °C) and -0.184 ± 0.17 (37 °C).
Turning to GGAAAGCAAUAUUACGAGAC, the “self-splicing fitness (ln)” value was -3.69 ± 0.17 (30 °C) and -1.96 ± 0.11 (37 °C).
In the same order, the values of GGAAAGCAAUAUUACGAGUA are -2.38 ± 0.22 and -0.9 ± 0.19.
In the same order, the values of GGAAAGCAAUAUUACGAUUU are -0.238 ± 0.081 and 0.189 ± 0.1.
In the same order, the values of GGAAAGCAAUAUUACGCAAU are -2.27 ± 0.45 and -0.77 ± 0.32.
As to GGAAAGCAAUAUUACGCAUC, the “self-splicing fitness (ln)” value runs as follows: (30 °C) -2.7 ± 0.17; (37 °C) -2.49 ± 0.31.
As for GGAAAGCAAUAUUACGCAUG, the “self-splicing fitness (ln)” value runs as follows: (30 °C) -1.24 ± 0.084; (37 °C) -0.813 ± 0.11.
GGAAAGCAAUAUUACGCCCU: the “self-splicing fitness (ln)” value runs as follows: (30 °C) -1.16 ± 0.21; (37 °C) -1.25 ± 0.21.
With GGAAAGCAAUAUUACGCCGG, the “self-splicing fitness (ln)” value (37 °C) was -2.24 ± 0.37.
For GGAAAGCAAUAUUACGCGAC, the “self-splicing fitness (ln)” value is, setting by setting: (30 °C) -2.95 ± 0.24; (37 °C) -1.73 ± 0.25.
For the sequence GGAAAGCAAUAUUACGCUUC, the “self-splicing fitness (ln)” value (30 °C) is -2.84 ± 0.3.
Consider GGAAAGCAAUAUUACGGAAC, for which the “self-splicing fitness (ln)” value (30 °C) is -3.58 ± 0.43.
Turning to GGAAAGCAAUAUUACGGGAU, the “self-splicing fitness (ln)” value (30 °C) is -2.64 ± 0.17 and the “self-splicing fitness (ln)” value (37 °C) is -1.1 ± 0.14.
With GGAAAGCAAUAUUACGGUAC, the “self-splicing fitness (ln)” value reads like this: (30 °C) -0.689 ± 0.13; (37 °C) -1.36 ± 0.19.
For GGAAAGCAAUAUUACGUAAG, the “self-splicing fitness (ln)” value reads like this: (30 °C) -1.87 ± 0.13; (37 °C) -1.18 ± 0.15.
GGAAAGCAAUAUUACGUAGU: the “self-splicing fitness (ln)” value reads like this: (30 °C) -2.97 ± 0.11; (37 °C) -1.23 ± 0.088.
Consider GGAAAGCAAUAUUACGUCAA, for which the “self-splicing fitness (ln)” value runs as follows: (30 °C) -1.7 ± 0.19; (37 °C) -0.985 ± 0.18.
GGAAAGCAAUAUUACGUCCG: the “self-splicing fitness (ln)” value is -0.651 ± 0.23 (30 °C) and -0.324 ± 0.21 (37 °C).
In the same order, the values of GGAAAGCAAUAUUACGUUAA are -3.35 ± 0.16 and -1.84 ± 0.15.
In the same order, the values of GGAAAGCAAUAUUACGUUAC are -2.63 ± 0.16 and -0.204 ± 0.11.
In the same order, the values of GGAAAGCAAUAUUACGUUAU are -2.24 ± 0.09 and -1.16 ± 0.12.
